The results in this text go back to publication PMC4117452, “Immunolocalization of Anti-Hsf1 to the Acetabular Glands of Infectious Schistosomes Suggests a Non-Transcriptional Function for This Transcriptional Activator”.

The target of the data set is T1, MBP-SmHsf1 (Schistosoma mansoni, UniProt G4VTC5 1-658).
T1 sequence: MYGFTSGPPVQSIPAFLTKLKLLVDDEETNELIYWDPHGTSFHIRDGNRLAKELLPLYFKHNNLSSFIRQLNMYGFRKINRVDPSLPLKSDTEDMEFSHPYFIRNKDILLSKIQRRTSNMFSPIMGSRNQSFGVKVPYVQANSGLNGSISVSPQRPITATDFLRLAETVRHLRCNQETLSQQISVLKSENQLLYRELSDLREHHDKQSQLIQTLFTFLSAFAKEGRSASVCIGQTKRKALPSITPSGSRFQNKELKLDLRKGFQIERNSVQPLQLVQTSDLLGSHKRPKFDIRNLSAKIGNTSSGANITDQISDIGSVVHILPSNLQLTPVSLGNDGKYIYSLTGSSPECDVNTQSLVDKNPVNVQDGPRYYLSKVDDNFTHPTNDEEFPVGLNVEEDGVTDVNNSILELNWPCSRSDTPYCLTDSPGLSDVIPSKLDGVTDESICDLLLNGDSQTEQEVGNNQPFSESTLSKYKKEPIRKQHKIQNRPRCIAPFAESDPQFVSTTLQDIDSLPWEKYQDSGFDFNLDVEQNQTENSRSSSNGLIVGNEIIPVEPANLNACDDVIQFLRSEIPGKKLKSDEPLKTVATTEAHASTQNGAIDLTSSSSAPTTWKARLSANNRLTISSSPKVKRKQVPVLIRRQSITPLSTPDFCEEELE
Kind of data set: competition; EMSA vs oKI068(ds), 250-fold unlabeled; 'great affinity'; LightShift EMSA binding buffer with glycerol, MgCl2, poly-dIdC, NP-40 (concentrations, pH and temperature not stated), 30 min; 5% native PAGE, 0.5x TBE. Conditions: protein: recombinant; tags: N-terminal MBP (pMAL-c5X); chain copies: 3; blunt. On the technique in general: A gel shift assay detects complexes by their altered migration in electrophoresis.

B1: oKI073/074 consensus HSE (dsDNA)
DNA 1: GATCGTCATAGAAAGTTCTAGAACGATC
DNA 2: GATCGTTCTAGAACTTTCTATGACGATC
In the case of B1, the binding result is recorded as “binds”.
